The record followed here is FireProtDB (doi:10.1021/bi020450z).

For this data set the following is noted: Bos taurus; pH 8.5; Thermal; CD; Glycine; reversible: YES; whole UniProt chain shown.

B1: Adrenodoxin, mitochondrial wild type, P00257 (protein)
chain: MAARLLRVASAALGDTAGRWRLLARPRAGAGGLRGSRGPGLGGGAVATRTLSVSGRAQSSSEDKITVHFINRDGETLTTKGKIGDSLLDVVVQNNLDIDGFGACEGTLACSTCHLIFEQHIFEKLEAITDEENDMLDLAYGLTDRSRLGCQICLTKAMDNMTVRVPDAVSDARESIDMGMNSSKIE
One may read the Tm as the temperature at which the thermal transition is half complete. Consider B1, for which the Tm came out at 51.9 °C.
